What was measured:
VEGF [1] = assay: VEGF immunostaining in gonadal tumor sections of inh-KO mice; assay type: in vivo, mouse; conditions: ovarian and testicular tumors of inh-KO mice; FIG. 8B
Procedure: (§1) 12-week-old female and 8-week-old male inh-KO mice with fully established ovarian or testicular tumors received a single injection of PBS or sActRIIB (30 mg/kg, SC). As a control, age-matched wild-type littermates received a single injection of PBS. Ovarian and testicular organ weights were determined by necropsy 14 days after the injection.
(§2) Zinc-formalin fixed paraffin tumor tissue sections of 4 μm in thickness were prepared. The sections were subjected to antigen retrieval by microwave 3 min in Unmask solution (Vector H-3300) followed by incubation in 10 μg/ml Proteinase-K for 20 min and in 1% H2O2 in dH2O for 10 min at room temperature. The sections were further incubated in 0.1% Tween-20 in PBS for 3 min to permeabilize the cell membrane and in goat serum for 30 min to block non-specific binding. The sections were then incubated at room temperature with specific primary antibody for 3 hours followed by incubation in biotinylated or fluorescently labeled secondary antibody. Substrate developed in Vector SG kit (SK-4700) or DAB and nuclear-counterstained in Vector Fast Red (H-3403) or in hematoxylin. The immunostained tissue sections were analyzed and photographed using a Nikon Eclipse 90i microscope equipped with DS-Ril camera. […]

TOV-21G cells = assay: In vitro proliferation assay of TOV-21G cells (IncuCyte); assay type: cell-based, human; conditions: increasing concentrations; FIG. 14
Procedure: In vitro growth rates of TOV-21G cancer cells were analyzed by using a real-time live cell imaging system (IncuCyte) following the manufacturer's recommended protocol.

Ang-1 [2] = assay: Ang-1 immunostaining in gonadal tumor sections of inh-KO mice; assay type: in vivo, mouse; conditions: ovarian and testicular tumors of inh-KO mice; FIG. 8B
Procedure: as §1, §2

[3] = tested on: TOV-21G ovarian cancer xenografts; assay: TOV-21G ovarian cancer xenograft growth in nude mice; assay type: in vivo, mouse
Procedure: (§3) 5×10^6 TOV-21G ovarian cancer cells were implanted subcutaneously into individual female athymic nu/nu mice (Harlan). Treatment was initiated at day 12 after tumor implantation, when the average tumor volume reached approximately 150 mm^3. The mice received PBS, sActRIIB (30 mg/kg, SC, 1×/week) or activin-A antibody (30 mg/kg, SC, 2×/week). In a separate chemotherapy combination experiment, the mice were treated with PBS, sActRIIB (10 mg/kg, SC, 1×/week), 5-FU (50 mg/kg, IP, 3 cycles, 4 daily injections per cycle) or sActRIIB and 5-FU combination at the same doses above.
For all xenograft experiments, the tumor sizes were measured longitudinally by using an electronic caliper Immediately prior to the 1st dose, the tumor-bearing mice were randomized to ensure even distribution in tumor sizes across different groups. Tumor volumes (mm^3) were calculated as tumor length (mm)×tumor width (mm)×tumor height (mm) Tumor weights were determined by necropsy.
In another experiment, athymic nude mice received TOV-21G xenografts in the abdominal flank. After 14 days, subcutaneous hu-sActRIIB-Fc was administered weekly alone or in combination with 5-FU.

VEGF [4] = assay: VEGF immunostaining in TOV-21G xenograft tumor sections; assay type: in vivo, mouse; conditions: treated vs untreated sections (strong immunostaining); FIG. 15A
Procedure: as §3
as §2, with “Substrate developed in Vector SG kit (SK-4700) or DAB and nuclear-counterstained in Vector Fast Red (H-3403) or in hematoxylin.” left out

[5] = tested on: DNA fragmentation (apoptosis) in TOV-21G tumors; assay: TUNEL assay in TOV-21G xenograft tumor sections; assay type: in vivo, mouse; conditions: FIG. 15C
Procedure: as §3
Cell apoptosis in TOV-21G tumors was analyzed by measuring the amounts of fragmented DNA in the tumor sections using the DeadEnd Fluorometric TUNEL System following the manufacturer's recommended protocols (Promega, G3250). The fluorescein-12-dUTP-labeled DNA was visualized by Nikon fluorescence microscopy.

Ang-1 [6] = assay: Ang-1 release into culture medium (ELISA); assay type: cell-based, human; conditions: MRC-5 and CCD-Lu cells treated with activin-A, without or with sActRIIB; FIG. 17B
Procedure: The serum VEGF levels in inh-KO mice were measured by using immunoassay kit (R&D Systems), and the levels of human VEGF and Ang-1 in cell line culture medium were quantified using ELISA kits purchased from Invitrogen (VEGF) and R&D Systems (Ang-1), by following the manufacturers' recommended protocols.

E-cadherin = E-cadherin in ovarian tumors of inh-KO mice (Western blot, immunostaining); assay type: in vivo, mouse
Procedure: as §1
(§4) Protein extracts were prepared from cell cultures or tissues in T-PER tissue protein extraction reagent (Pierce) containing a mixture of protease inhibitors (Roche). A pool of 50 μg total protein for each group containing equal amounts of protein extract isolated from individual animals was separated by NuPAGE 4-12% Bis-Tris gel (Invitrogen) and transferred to PVDF. The membranes were probed with primary antibodies against total Smad2, p-Smad2 or E-cadherin (1:1000; Cell Signaling), endoglin, osteopontin (1:500; R&D Systems), IGFBP-1, IGFBP-2 (1:500; Abcam) followed by HRP-conjugated secondary antibody (1:2000; Cell Signaling). The membranes were stripped and re-probed with antibody against α-tubulin (1:1000; Cell Signaling).
Zinc-formalin fixed paraffin tumor tissue sections of 4 μm in thickness were prepared. […] The immunostained tissue sections were analyzed and photographed using a Nikon Eclipse 90i microscope equipped with DS-Ril camera. […]

osteopontin = assay: Western blot of osteopontin in ovarian tumors of inh-KO mice; assay type: in vivo, mouse; conditions: FIG. 8D
Procedure: as §1, §4

Ang-1 [7] = assay: Ang-1 immunostaining in TOV-21G xenograft tumor sections; assay type: in vivo, mouse; conditions: treated vs untreated sections (strong immunostaining); FIG. 15A
Procedure: as §3
as §2, with “Substrate developed in Vector SG kit (SK-4700) or DAB and nuclear-counterstained in Vector Fast Red (H-3403) or in hematoxylin.” left out

Ang-1 mRNA = Ang-1 mRNA in cell cultures (real-time RT-PCR); assay type: cell-based, human, bovine; conditions: BAEC, MRC-5 and CCD-Lu cultures treated with recombinant activin-A, without or with sActRIIB; FIG. 16B

B1: sActRIIB: extracellular domain of human activin type-2B receptor fused to IgG2 Fc, expressed in CHO cells; sequence in the 26th table (protein)
chain: ETRWCIYYNANWELERTNQGLERCEGEQDKRLHCYASWRNSSGTIELVKKGCWLDDFNCYDRQECVATEENPQVYFCCCEGNFCNERFTHLPEAGGPEVTYEPPPTAPTGGGGSVECPPCPAPPVAGPSVFLFPPKPKDTLMISRTPEVTCVVVDVSHEDPEVQFNWYVDGVEVHNAKTKPREEQFNSTFRVVSVLTVVHQDWLNGKEYKCKVSNKGLPAPIEKTISKTKGQPREPQVYTLPPSREEMTKNQVSLTCLVKGFYPSDIAVEWESNGQPENNYKTTPPMLDSDGSFFLYSKLTVDKSRWQQGNVFSCSVMHEALHNHYTQKSLSLSPGK
modifications: left off: a dimerising Fc or GST
In the case of B1, the “VEGF immunoreactivity in tumor sections” value (VEGF [1]) is reported as “completely abolished the VEGF and Ang-1 inductions”, the “TOV-21G cell proliferation in vitro” value (TOV-21G cells) is reported as “no direct effect” and the “Ang-1 immunoreactivity in tumor sections” value (Ang-1 [2]) is reported as “completely abolished the VEGF and Ang-1 inductions”. For the same molecule, the tumor growth reduction ([3]; 52 days after tumor cell injection, versus vehicle-treated tumor-bearing group, p<0.0001, weekly SC hu-sActRIIB-Fc from day 14, alone or with 5-FU) was 43%, the “rate of tumor growth of TOV-21G xenografts” value ([3]; chemotherapy combination experiment, sActRIIB 10 mg/kg SC 1x/week, 5-FU 50 mg/kg IP 3 cycles, alone or together, FIG. 13) was “decreased the rate of tumor growth significantly” and the “growth of TOV-21G ovarian cancer xenografts” value ([3]; nude mice, sActRIIB 30 mg/kg SC 1x/week or activin-A antibody 30 mg/kg SC 2x/week from day 12, FIG. 10B) was “significantly inhibited the growth”. For the same molecule, the “VEGF immunostaining in TOV-21G tumor sections” value (VEGF [4]) was “virtually none”, the “DNA fragmentation (TUNEL) in TOV-21G tumors” value [5] was “profound increases” and the “release of Ang-1 into the culture medium” value (Ang-1 [6]) was “blocked completely”. For the same molecule, the “E-cadherin immunoreactivity in ovarian sections” value (E-cadherin; FIG. 6B) was “reappearance of distinctive E-cadherin immunoreactivity”, the “E-cadherin protein in ovarian tumors (Western blot)” value (E-cadherin; single injection, FIG. 6A) was “dramatically restored the lost E-cadherin” and the “osteopontin induction (Western blot)” value (osteopontin) was “abolished completely”. The “Ang-1 immunostaining in TOV-21G tumor sections” value (Ang-1 [7]) was “virtually none” and the “levels of Ang-1 mRNA” value (Ang-1 mRNA) was “prevented this induction”.
